Literature values in paper PMC12017986.
Read-outs that look alike come from different tables or passages of the source.

What was measured:
[1] = target: Dynein intermediate chain (IC) (Drosophila melanogaster) (UniProt Q24246)
[2] = target: Dynein intermediate chain (IC) (Drosophila melanogaster) (UniProt Q24246); remark: listed apart in the source
[3] = target: Swallow (Drosophila melanogaster) (UniProt P40688)
UniProt P40688, sequence (P40688 whole entry): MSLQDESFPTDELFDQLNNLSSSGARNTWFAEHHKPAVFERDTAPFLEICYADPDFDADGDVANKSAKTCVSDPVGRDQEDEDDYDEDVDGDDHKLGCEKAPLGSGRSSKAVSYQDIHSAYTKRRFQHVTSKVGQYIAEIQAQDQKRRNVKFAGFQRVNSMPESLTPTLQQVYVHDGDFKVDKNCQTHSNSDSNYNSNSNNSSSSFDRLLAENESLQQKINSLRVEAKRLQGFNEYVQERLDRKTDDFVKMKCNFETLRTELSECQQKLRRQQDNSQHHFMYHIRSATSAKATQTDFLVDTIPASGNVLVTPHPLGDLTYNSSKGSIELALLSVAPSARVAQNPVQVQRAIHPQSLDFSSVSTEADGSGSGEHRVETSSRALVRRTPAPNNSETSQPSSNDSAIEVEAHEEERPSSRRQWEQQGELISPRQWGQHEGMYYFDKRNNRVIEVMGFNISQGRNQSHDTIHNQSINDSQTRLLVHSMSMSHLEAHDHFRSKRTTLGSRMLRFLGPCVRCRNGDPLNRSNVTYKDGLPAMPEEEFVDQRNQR

UniProt Q24246, sequence (Q24246 whole entry): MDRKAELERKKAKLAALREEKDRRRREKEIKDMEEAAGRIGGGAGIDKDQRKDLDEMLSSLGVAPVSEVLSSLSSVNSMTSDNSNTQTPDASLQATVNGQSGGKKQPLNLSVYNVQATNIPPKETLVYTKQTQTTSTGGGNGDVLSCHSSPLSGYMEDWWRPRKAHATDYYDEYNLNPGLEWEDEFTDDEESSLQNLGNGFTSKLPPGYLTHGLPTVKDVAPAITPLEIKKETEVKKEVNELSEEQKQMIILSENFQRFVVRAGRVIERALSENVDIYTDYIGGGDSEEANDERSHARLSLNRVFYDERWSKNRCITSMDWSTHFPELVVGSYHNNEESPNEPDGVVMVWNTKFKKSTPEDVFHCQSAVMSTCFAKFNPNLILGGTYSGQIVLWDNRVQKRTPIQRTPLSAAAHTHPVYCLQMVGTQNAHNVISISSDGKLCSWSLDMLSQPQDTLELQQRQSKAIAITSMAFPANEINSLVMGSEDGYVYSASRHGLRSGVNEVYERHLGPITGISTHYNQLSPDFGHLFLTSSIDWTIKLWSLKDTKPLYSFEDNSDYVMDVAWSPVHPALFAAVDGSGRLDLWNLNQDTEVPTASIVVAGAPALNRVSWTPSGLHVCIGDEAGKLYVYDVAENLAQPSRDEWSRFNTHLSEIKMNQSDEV

Substance: LC8 (from UniProt Q24117)
- Kd [1]: 8000 nM
- Kd [2]: 130 nM
- Kd [3]: 200 nM
